{"source": "patent US20190331690A1", "about": "“BIOTHIOL DETECTION COMPOSITION COMPRISING REDOX REGULATION PROTENIN” (INDUSTRY-UNIVERSITY COOPERATION FOUNDATION HANYANG …, priority 2016, published 2019)", "molecules": {"B1": {"name": "DNAzyme-linked OhrR operator dsDNA probe (dsDNA)", "DNA 1": "GGGTTGGGCGGGATGGGTTTTTTTTTTACAATTAAATTGTATACAATTAAATTGTA", "DNA 2": "TACAATTTAATTGTATACAATTTAATTGTA"}, "B2": {"name": "OhrR operator dsDNA, biotin (dsDNA)", "DNA 1": "B1 DNA 2 with T8A, T23A", "DNA 2": "B1 DNA 2"}, "B3": {"name": "OhrR operator dsDNA, 6FAM (dsDNA)", "DNA 1": "B1 DNA 2 with T8A, T23A", "DNA 2": "B1 DNA 2"}}, "key": {"OhrR [1]": {"target": "T1, OhrR (Bacillus subtilis, UniProt O34777)", "T1 construct": "made in house", "experiment": "OhrR-biothiol binding by MALDI-TOF MS", "set-up": "species or system B. subtilis", "conditions": "300 nM OhrR, 3 μM CHP", "description": "It was confirmed whether it is possible to quantitatively analyze the binding of OhrR and a biothiol using a Matrix-Assisted Laser Desorption Ionization-Time-of-Flight Mass Spectrometry (MALDI-TOF mass spectrometer; MALDI-TOF MS).\n1 mL of a 300 nM OhrR-containing buffer (20 mM Tris (pH 8.0), 100 mM NaCl, 5% Glycerol) was mixed with a biothiol (Cys, Hcy or GSH) at each concentration (0, 1, 2, 4, 8, 16, 32, or 64 μM). After 3 μM CHP reacted with each resulting mixture for 2 minutes, 110 μL of 100% TCA was treated to stop the oxidation reaction, and precipitate OhrR. To alkylate the precipitated OhrR, 50 mM iodoacetamide was treated, thereby blocking a cysteine residue of the reduced OhrR. The protein was isolated by sodium dodecyl sulphate-polyacrylamide gel electrophoresis (SDS-PAGE), and then a band corresponding to OhrR was cut out and treated with trypsin (37° C., 12 hours or more), followed by extraction from the gel. 0.5 μL of the extracted peptides were treated with 0.5 μL of a-cyano-4-hydroxycinnamic acid (CHCA) (in 50% acetonitrile, 1% TFA) and dehydrated, and then subjected to MALDI-TOF analysis. The MADI-TOF analysis was performed using a 4700 Proteomics Analyzer instrument (Applied Biosystems)."}, "OhrR [2]": {"target": "T1, OhrR", "experiment": "Biochip detection of LMW biothiols (His6-tag OhrR, HisProbe-HRP, TMB absorbance at 450 nm)", "assay_type": "biochemical", "conditions": "same concentration (final 100 μM biothiol), CHP final 5 μM, 10 minutes", "description": "A biochip method is for […] using His6-tag of OhrR, rather than by labeling with fluorescence or a DNAzyme, according to a principle that OhrR is detached from dsDNA attached to the surface of a biochip in the presence of LMW biothiols, thereby reducing a detection signal.\n150 μL of 5 mg/mL NeutrAvidin® (Thermo Scientific, USA) diluted with a coating buffer (100 mM Na2HPO4, 50 mM citric acid) was put into each well of a transparent 96-well plate, and reacted at 37° C. for 4 to 5 hours, and then an unbound residue was washed with TBS four times. After washing, 300 μL of a Seablock blocking buffer (Thermo Scientific, USA) was put into each well and shaken at room temperature for 2 hours for blocking (process of coating NeutrAvidin-unbound surface to prevent non-specific reaction), followed by re-washing with TBS four times. […]\n(§1) 50 μL of one of CHP (final 5 μM) and a LMW biothiol (final 100 μM for each of L-cysteine, homocysteine and GSH) was simultaneously put into each well using the biochip to which biotin-dsDNA and His6-tag OhrR were fixed to the NeutrAvidin-coated plate, reacted at room temperature for 10 minutes, and washed with TBS for 4 times. […] After 5 minutes, 2M sulfuric acid was added to stop the reaction, and absorbance was measured at 450 nm. […]"}, "FLAG-OhrR [3]": {"target": "T2, FLAG-OhrR (Bacillus subtilis, UniProt O34777 SEQ:1-147)", "T2 sequence": "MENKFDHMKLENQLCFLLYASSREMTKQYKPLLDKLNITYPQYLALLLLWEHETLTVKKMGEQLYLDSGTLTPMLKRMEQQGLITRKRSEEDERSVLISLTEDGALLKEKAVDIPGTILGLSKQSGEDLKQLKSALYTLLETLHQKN", "experiment": "pulldown; anti-FLAG beads, 5 uM OhrR, 100 nM DNA, TBS; released by CHP plus cysteine, chemiluminescence readout", "conditions": "tags: FLAG (DYKDDDDK), expressed in E. coli; chain copies: 2; label: 5' biotin on complementary strand; 5' single-stranded peroxidase DNAzyme plus T9 linker overhang", "description": "After unbound dsDNA was removed by spin-down, 160 μL of a buffer (Tris Buffered Saline, TBS)->20 μL of LMW biothiols (by concentration)->20 μL of CHP (500 μM) were sequentially added to each tube, followed by shaking for 5 minutes. Afterward, 200 μL of a supernatant obtained by spin-down was transferred to a 96-well plate, and fluorescence or chemiluminescence was measured. The reducing agent (DTT)-untreated sample may be used for measuring free LMW biothiols, and the reducing agent-treated sample may be used for measuring total LMW biothiols [FIG. 9].\n200 μL of the DNAzyme (5′-GG GTT GGG CGG GAT GGG-3′ [SEQ ID NO: 6], synthesized by IDT)-bound OhrR-binding dsDNA was recovered from a supernatant, and 20 μL of a suspension of NeutrAvidin®-coated beads (Thermo Scientific, USA) was added thereto, followed by shaking at room temperature for 30 minutes. Afterward, washing was performed with a TBS (20 mM Tris, 150 mM NaCl, pH 7.4) buffer four times. To induce DNAzyme activity, 180 μL of a TBS buffer was mixed with 20 μL of 1 μM Hemin (Calbiochem, USA) (in TBS) solution to reach the final volume of 200 μL, the beads were precipitated, and then the resulting solution was left at room temperature under a dark condition for 15 minutes or more. […]"}, "His6-OhrR": {"target": "T3, His6-OhrR (Bacillus subtilis, UniProt O34777 SEQ:1-147)", "T3 sequence": "T2 sequence", "experiment": "plate assay on NeutrAvidin, 5 uM OhrR, TBS, HisProbe-HRP readout; signal reduced by CHP plus biothiol", "conditions": "tags: His6; chain copies: 2; label: biotin", "description": "150 μL of 5 mg/mL NeutrAvidin® (Thermo Scientific, USA) diluted with a coating buffer (100 mM Na₂HPO₄, 50 mM citric acid) was put into each well of a transparent 96-well plate, and reacted at 37° C. for 4 to 5 hours, and then an unbound residue was washed with TBS four times. After washing, 300 μL of a Seablock blocking buffer (Thermo Scientific, USA) was put into each well and shaken at room temperature for 2 hours for blocking (process of coating NeutrAvidin-unbound surface to prevent non-specific reaction), followed by re-washing with TBS four times. 100 μL of a biotin-DNA solution diluted with a TBS buffer to 1 μM was put into each well of the blocking-completed microplate, and reacted at room temperature for 1 hour, followed by washing with TBS four times. […]\nas §1"}, "[4]": {"target": "T4, OhrR (organic hydroperoxide regulator) (Bacillus subtilis, UniProt O34777 SEQ:1-147)", "T4 sequence": "T2 sequence", "experiment": "BLI; 50 uM OhrR, TBS; binding thickness about 4.3 nm, falls to about 1 nm with CHP plus biothiol; CHP or biothiol alone still binds", "conditions": "chain copies: 2; label: biotin"}, "[5]": {"target": "T4, OhrR (organic hydroperoxide regulator)", "experiment": "FP; 50 nM DNA, 300 nM OhrR; 20 mM Tris pH 8.0, 150 mM NaCl, 5% glycerol; dissociates on CHP plus Cys/Hcy/GSH", "conditions": "chain copies: 2; label: 6-FAM", "description": "The binding activity between OhrR and fluorescence (6FAM, 6-carboxyfluorescein)-labeled OhrR-binding DNA was measured every 10 seconds using an LS55 luminescence spectrometer (PerkinElmer) after dissolution in 3 mL of a buffer at a concentration under the experimental conditions. When OhrR binds to DNA, an anisotropy value (Anis) increases. However, when OhrR is dissociated from DNA, an anisotropy value decreases. In each experiment, three representative biothiols such as cysteine (Cys), homocysteine (Hcy) and glutathione (GSH) were treated at various concentrations (0, 1, 2, 4, 8, 16, 32, and 64 μM). While OhrR was bound to DNA in the presence of only a free biothiol, a real-time dissociation rate of OhrR from DNA was measured by treating a type of representative organic hydroperoxide, that is, cumene hydroperoxide (CHP) (treated at 300 sec)."}, "FLAG-OhrR [6]": {"target": "T2, FLAG-OhrR", "experiment": "pulldown; anti-FLAG beads, 2 uM OhrR, 100 nM DNA, TBS; released by CHP plus biothiol", "conditions": "tags: FLAG (DYKDDDDK), expressed in E. coli; chain copies: 2; label: 6-FAM", "description": "First, 30 μL of M2 FLAG affinity beads (Sigma, A2220) were added to respective tubes corresponding to the number of samples, and FLAG-tagged OhrR (2 μM) was bound thereto for 1 hour to reach the total volume of 200 μL (when OhrR is bound to the His6 tag, NTA-Beads can also be used). To remove unbound OhrR, after spin-down, a supernatant was removed, fluorophore or DNAzyme-bound OhrR-binding dsDNA (100 nM, SEQ ID NOs: 1 and 2) was bound to the OhrR-bound beads for 30 minutes. […] Afterward, 200 μL of a supernatant obtained by spin-down was transferred to a 96-well plate, and fluorescence or chemiluminescence was measured. […]\nOhrR-binding dsDNA was bound with a fluorescent factor FAM, and 200 μL of the final supernatant was transferred to a 96 well plate, followed by fluorescence measurement using a multi plate reader (Variokan, Thermo Scientific). In the fluorescence measurement, a fluorescent signal value at a 525 nm emission wavelength obtained at an excitation wavelength of 480 nm was obtained, and a fluorescence value of each well was corrected using a well only containing a buffer without a fluorescent factor as a reference value, followed by comparing these values."}}, "note": "Changes are numbered by the printed parent chain."}
{"molecule": "N[C@@H](CS)C(=O)O", "note": "[Cys, cysteine]", "values": [{"measurement": "detection signal level among the measured LMW biothiols", "setting": "OhrR [1]", "result": "highest detection signal level"}, {"measurement": "absorbance signal reducing effect compared with homocysteine or GSH", "setting": "OhrR [2]", "result": "higher absorbance signal reducing effect"}]}
{"molecule": "B1", "values": [{"measurement": "binding result", "setting": "FLAG-OhrR [3]", "result": "binds"}]}
{"molecule": "B2", "values": [{"measurement": "binding result", "setting": "His6-OhrR", "result": "binds"}, {"measurement": "binding result", "setting": "[4]", "result": "binds"}]}
{"molecule": "B3", "values": [{"measurement": "binding result", "setting": "[5]", "result": "binds"}, {"measurement": "binding result", "setting": "FLAG-OhrR [6]", "result": "binds"}]}
